System: Escherichia coli TOP10
Assay: shrunken log2 fold change of peptide-encoding DNA abundance (4.5 h post-induction vs induction); higher = less antimicrobial activity (less host growth inhibition)
Conditions: time post-induction: 4.5 h; library: site-saturation at positions 5, 18, 19, 20
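Note: peptides expressed intracellularly from a pBAD plasmid library in pooled LB shake-flask culture, induced with 0.3% L-arabinose, DNA abundance read by NGS, three biological replicates, DESeq2 with apeglm shrinkage.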

Row | Sequence | shrunken log2 fold change
1 | RRIRYRPPRLPRPRPRPAFWPRP | 0.444
2 | RRIRQRPPRLPRPRPRPIQGPRP | -0.0863
3 | RRIRWRPPRLPRPRPRPDMRPRP | 0.499
4 | RRIRARPPRLPRPRPRPDIFPRP | 0.148
5 | RRIRFRPPRLPRPRPRPINIPRP | -0.113
6 | RRIRMRPPRLPRPRPRPYEQPRP | -0.222
7 | RRIRPRPPRLPRPRPRPGEMPRP | 0.294
8 | RRIRSRPPRLPRPRPRPVFMPRP | -0.236
9 | RRIRDRPPRLPRPRPRPCMSPRP | -0.256
10 | RRIRDRPPRLPRPRPRPPTKPRP | 0.00654
11 | RRIRVRPPRLPRPRPRPMWMPRP | 0.109
12 | RRIRFRPPRLPRPRPRPTMIPRP | -0.941
13 | RRIRHRPPRLPRPRPRPFSRPRP | -0.0618
14 | RRIRQRPPRLPRPRPRPNMCPRP | -0.195
15 | RRIRPRPPRLPRPRPRPSFTPRP | -0.213
16 | RRIRHRPPRLPRPRPRPFVTPRP | -0.188
17 | RRIRIRPPRLPRPRPRPRMTPRP | 0.043
18 | RRIRGRPPRLPRPRPRPESCPRP | 1.33
19 | RRIRSRPPRLPRPRPRPFYKPRP | -0.426
20 | RRIRIRPPRLPRPRPRPEIMPRP | -0.183
21 | RRIRWRPPRLPRPRPRPHPQPRP | 0.309
22 | RRIRMRPPRLPRPRPRPEGYPRP | 2.64
23 | RRIRGRPPRLPRPRPRPHTYPRP | -0.0875
24 | RRIRQRPPRLPRPRPRPAWHPRP | 0.0212
25 | RRIRFRPPRLPRPRPRPYYGPRP | -0.0202

Row | Sequence | shrunken log2 fold change
26 | RRIRLRPPRLPRPRPRPGSRPRP | -0.183
27 | RRIRRRPPRLPRPRPRPWDHPRP | 0.0105
28 | RRIRIRPPRLPRPRPRPDCIPRP | 0.0653
29 | RRIRYRPPRLPRPRPRPDDEPRP | 0.00902
30 | RRIRPRPPRLPRPRPRPEDAPRP | 0.0442
31 | RRIRARPPRLPRPRPRPSFSPRP | -0.134
32 | RRIRERPPRLPRPRPRPGRPPRP | 0.164
33 | RRIRFRPPRLPRPRPRPMKGPRP | -0.0547
34 | RRIRTRPPRLPRPRPRPVVFPRP | -0.184
35 | RRIRNRPPRLPRPRPRPVREPRP | 0.249
36 | RRIRVRPPRLPRPRPRPYDYPRP | -0.00141
37 | RRIRVRPPRLPRPRPRPQNQPRP | -0.388
38 | RRIRIRPPRLPRPRPRPKAMPRP | -0.161
39 | RRIRYRPPRLPRPRPRPSYKPRP | -1.22
40 | RRIRMRPPRLPRPRPRPARAPRP | 1.43
41 | RRIRLRPPRLPRPRPRPMSYPRP | -0.25
42 | RRIRLRPPRLPRPRPRPTLYPRP | 2.28
43 | RRIRLRPPRLPRPRPRPHPDPRP | -0.111
44 | RRIRFRPPRLPRPRPRPKFMPRP | -0.542
45 | RRIRWRPPRLPRPRPRPQDLPRP | 0.107
46 | RRIRPRPPRLPRPRPRPDVGPRP | 0.181
47 | RRIRRRPPRLPRPRPRPYYQPRP | -0.617
48 | RRIRSRPPRLPRPRPRPQYFPRP | -0.18
49 | RRIRARPPRLPRPRPRPRASPRP | 0.797
50 | RRIRMRPPRLPRPRPRPPQDPRP | 1.24

Row | Sequence | shrunken log2 fold change
51 | RRIRNRPPRLPRPRPRPLALPRP | -0.239
52 | RRIRERPPRLPRPRPRPPGNPRP | 0.106
53 | RRIRQRPPRLPRPRPRPTAWPRP | 0.591
54 | RRIRFRPPRLPRPRPRPGYGPRP | 0.019
55 | RRIRQRPPRLPRPRPRPLITPRP | -0.281
56 | RRIRYRPPRLPRPRPRPTDTPRP | -0.392
57 | RRIRSRPPRLPRPRPRPNVIPRP | 0.0185
58 | RRIRMRPPRLPRPRPRPMATPRP | 0.0129
59 | RRIRERPPRLPRPRPRPVHAPRP | -0.0762
60 | RRIRTRPPRLPRPRPRPAFIPRP | -0.512
61 | RRIRARPPRLPRPRPRPHWRPRP | 0.319
62 | RRIRIRPPRLPRPRPRPDCVPRP | -0.0493
63 | RRIRSRPPRLPRPRPRPKFVPRP | -0.0276
64 | RRIRRRPPRLPRPRPRPLKEPRP | 0.0888
65 | RRIRRRPPRLPRPRPRPFDQPRP | 0.0321
66 | RRIRGRPPRLPRPRPRPMGFPRP | 0.315
67 | RRIRTRPPRLPRPRPRPKFDPRP | -0.0528
68 | RRIRRRPPRLPRPRPRPCEDPRP | 0.0155
69 | RRIRKRPPRLPRPRPRPASSPRP | 0.0469
70 | RRIRNRPPRLPRPRPRPMWLPRP | 0.0773
71 | RRIRYRPPRLPRPRPRPHYDPRP | -0.557
72 | RRIRNRPPRLPRPRPRPRDRPRP | -0.0372
73 | RRIRLRPPRLPRPRPRPQDHPRP | -0.203
74 | RRIRQRPPRLPRPRPRPEGLPRP | -0.0407
75 | RRIRFRPPRLPRPRPRPIDCPRP | -0.046

Row | Sequence | shrunken log2 fold change
76 | RRIRARPPRLPRPRPRPKRRPRP | 0.282
77 | RRIRWRPPRLPRPRPRPSRIPRP | -0.338
78 | RRIRKRPPRLPRPRPRPIGIPRP | -0.01
79 | RRIRYRPPRLPRPRPRPEMGPRP | -0.0771
80 | RRIRQRPPRLPRPRPRPINTPRP | -0.129
81 | RRIRQRPPRLPRPRPRPQKDPRP | -0.29
82 | RRIRQRPPRLPRPRPRPFETPRP | -0.232
83 | RRIRARPPRLPRPRPRPKIQPRP | 0.26
84 | RRIRLRPPRLPRPRPRPEMEPRP | -0.0177
85 | RRIRKRPPRLPRPRPRPPTDPRP | 0.544
86 | RRIRHRPPRLPRPRPRPGNAPRP | 0.137
87 | RRIRGRPPRLPRPRPRPYETPRP | 0.16
88 | RRIRYRPPRLPRPRPRPFEMPRP | -0.738
89 | RRIRRRPPRLPRPRPRPRLCPRP | 0.472
90 | RRIRCRPPRLPRPRPRPPYLPRP | -0.87
91 | RRIRQRPPRLPRPRPRPHAVPRP | -0.0835
92 | RRIRDRPPRLPRPRPRPNNSPRP | -0.422
93 | RRIRQRPPRLPRPRPRPYAFPRP | -0.175
94 | RRIRIRPPRLPRPRPRPGMYPRP | 0.123
95 | RRIRERPPRLPRPRPRPNLIPRP | -0.421
96 | RRIRWRPPRLPRPRPRPTCGPRP | 0.73
97 | RRIRDRPPRLPRPRPRPGDHPRP | 0.00849
98 | RRIRDRPPRLPRPRPRPMVPPRP | 0.0555
99 | RRIRRRPPRLPRPRPRPWNQPRP | 0.0251
100 | RRIRFRPPRLPRPRPRPNEQPRP | 0.027

Row | Sequence | shrunken log2 fold change
101 | RRIRQRPPRLPRPRPRPYSIPRP | 0.098
102 | RRIRGRPPRLPRPRPRPALVPRP | 1.02
103 | RRIRPRPPRLPRPRPRPPTRPRP | 0.683
104 | RRIRCRPPRLPRPRPRPPNMPRP | -0.302
105 | RRIRQRPPRLPRPRPRPPDEPRP | 0.0836
106 | RRIRLRPPRLPRPRPRPFRKPRP | 0.0823
107 | RRIRKRPPRLPRPRPRPIITPRP | 0.0225
108 | RRIRNRPPRLPRPRPRPALFPRP | 0.177
109 | RRIRIRPPRLPRPRPRPSNFPRP | -0.335
110 | RRIRSRPPRLPRPRPRPFKMPRP | -0.357
111 | RRIRPRPPRLPRPRPRPIYEPRP | -0.0945
112 | RRIRHRPPRLPRPRPRPCHQPRP | -0.601
113 | RRIRKRPPRLPRPRPRPWPYPRP | -0.146
114 | RRIRNRPPRLPRPRPRPQDLPRP | -0.11
115 | RRIRNRPPRLPRPRPRPTNGPRP | -0.0138
116 | RRIRMRPPRLPRPRPRPVDDPRP | -0.0248
117 | RRIRTRPPRLPRPRPRPSCCPRP | -0.341
118 | RRIRGRPPRLPRPRPRPVPWPRP | 0.526
119 | RRIRVRPPRLPRPRPRPRQSPRP | 0.181
120 | RRIRERPPRLPRPRPRPMRSPRP | 0.119
121 | RRIRPRPPRLPRPRPRPQNQPRP | -0.407
122 | RRIRWRPPRLPRPRPRPWLAPRP | -0.168
123 | RRIRNRPPRLPRPRPRPVDVPRP | -0.122
124 | RRIRYRPPRLPRPRPRPVYMPRP | -1.34
125 | RRIRFRPPRLPRPRPRPCYFPRP | -0.379

Source: the supplement of paper PMC9112550, “Optimization of the antimicrobial peptide Bac7 by deep mutational scanning” (BMC Biology, 2022)
